Source: article PMC5703901, “Rational design of cholesterol oxidase for efficient bioresolution of cholestane skeleton substrates” (Scientific Reports, 2017)

How the values were obtained:
Test in all cases: peroxidase-coupled 4-aminoantipyrine/phenol H2O2 assay, OD500
Type in all cases: biochemical, Pimelobacter simplex
Settings in all cases: 25 mM phosphate pH 7.5, isopropanol and Triton X-100, temperature not stated for kinetics
[1] = substrate: [H][C@@]12CC=C3C[C@@H](O)CC[C@]3(C)[C@@]1([H])CC[C@@]1(C)[C@@]2([H])CC[C@]1([H])C(C)=O
Description: (§1) peroxidase-coupled 4-aminoantipyrine/phenol H2O2 assay, OD500 on PsChO

[2] = substrate: CC(C)CCC[C@@H](C)[C@H]1CC[C@H]2[C@@H]3CC=C4C[C@@H](O)CC[C@]4(C)[C@H]3CC[C@]12C
Description: as §1

[3] = substrate: C[C@]12CC[C@H](O)CC1=CC[C@@H]1[C@@H]2CC[C@]2(C)C(=O)CC[C@@H]12
Description: as §1

[4] = substrate: CC[C@H](/C=C/[C@@H](C)[C@H]1CC[C@H]2[C@@H]3CC=C4C[C@@H](O)CC[C@]4(C)[C@H]3CC[C@]12C)C(C)C
Description: as §1

[5] = substrate: [H][C@@]12CC=C3C[C@@H](O)CC[C@]3(C)[C@@]1([H])CC[C@@]1(C)[C@@]2([H])CC[C@]1([H])[C@H](C)CC[C@@H](CC)C(C)C
Description: as §1

B1: PsChO (Pimelobacter simplex; V115C) (protein)
chain: VLVIGTGYGGAVAALRLAQAGVQVEMIEMGMSWDTPGSDGKIFAKVTSPDKRAYWLRTKTKAPCSNFFGFPIDATIPKYTGILDAEEFAGITVYQGRGVGGGSLVNGGMAVTPKQSRFSSILPSVDAAEMYATYYPRANAGLGVGSIDPAWFETAECYKYARVGRKHAQRSGFAWTFVPDVYDWNYMKAEQAGTVTRSALDGQVMYGNDHGKKSLVQTYLAQALATGRVNVSTLHQVTAVAPRSGGGYTVSIDQLDTSGNVVGTKSVTAGKVFFAAGSVGTSKLLTKLKATGSLPALNNEIGKGWGDNGNVMCGRANHMWDPTGSLQSTIPCSGIDNWDAGGAFAEVAPLPTGIETYASLYLSITNTTRRAEFSWNAAANKVDLSWQTAWKQDSINMAKTIFDKINSKEGTIYRTDLFGAYKVWQDGLTYHPLGGAVLNKATDNYGRLHGYNGLYVIDGALIPGNTTVNPFVTITALAERNIDNILANDI
notes: wild-type gene in pET28a(+), E. coli BL21(DE3), His6-tagged, Ni-NTA purified; noncovalent FAD type; catalytic H431, E346, N469
- Km [1]: 228.42 ± 3.24 µM
- kcat [1]: 13.7 ± 0.31 s⁻¹
- kcat/Km [1]: 60000 ± 600 M⁻¹ s⁻¹
- Km [2]: 178.31 ± 1.38 µM
- kcat [2]: 23 ± 0.29 s⁻¹
- kcat/Km [2]: 130000 ± 500 M⁻¹ s⁻¹
- Km [3]: 318.81 ± 3.25 µM
- kcat [3]: 9.56 ± 0.34 s⁻¹
- kcat/Km [3]: 30000 ± 500 M⁻¹ s⁻¹
- Km [4]: 528.84 ± 3.59 µM
- kcat [4]: 4.23 ± 0.19 s⁻¹
- kcat/Km [4]: 8000 ± 200 M⁻¹ s⁻¹
- Km [5]: 220.76 ± 3.14 µM
- kcat [5]: 13.2 ± 0.36 s⁻¹
- kcat/Km [5]: 60000 ± 700 M⁻¹ s⁻¹

B2: PsChO (Pimelobacter simplex; F121V) (protein)
chain: VLVIGTGYGGAVAALRLAQAGVQVEMIEMGMSWDTPGSDGKIFAKVTSPDKRAYWLRTKTKAPVSNFFGVPIDATIPKYTGILDAEEFAGITVYQGRGVGGGSLVNGGMAVTPKQSRFSSILPSVDAAEMYATYYPRANAGLGVGSIDPAWFETAECYKYARVGRKHAQRSGFAWTFVPDVYDWNYMKAEQAGTVTRSALDGQVMYGNDHGKKSLVQTYLAQALATGRVNVSTLHQVTAVAPRSGGGYTVSIDQLDTSGNVVGTKSVTAGKVFFAAGSVGTSKLLTKLKATGSLPALNNEIGKGWGDNGNVMCGRANHMWDPTGSLQSTIPCSGIDNWDAGGAFAEVAPLPTGIETYASLYLSITNTTRRAEFSWNAAANKVDLSWQTAWKQDSINMAKTIFDKINSKEGTIYRTDLFGAYKVWQDGLTYHPLGGAVLNKATDNYGRLHGYNGLYVIDGALIPGNTTVNPFVTITALAERNIDNILANDI
notes: as for B1
- Km [1]: 190.61 ± 3.30 µM
- kcat [1]: 15.2 ± 0.22 s⁻¹
- kcat/Km [1]: 80000 ± 400 M⁻¹ s⁻¹
- Km [2]: 154.83 ± 3.31 µM
- kcat [2]: 15.5 ± 0.3 s⁻¹
- kcat/Km [2]: 100000 ± 400 M⁻¹ s⁻¹
- Km [3]: 273.52 ± 2.13 µM
- kcat [3]: 13.7 ± 0.2 s⁻¹
- kcat/Km [3]: 50000 ± 600 M⁻¹ s⁻¹
- Km [4]: 384.12 ± 3.84 µM
- kcat [4]: 7.68 ± 0.27 s⁻¹
- kcat/Km [4]: 20000 ± 200 M⁻¹ s⁻¹
- Km [5]: 178.42 ± 1.61 µM
- kcat [5]: 16.1 ± 0.33 s⁻¹
- kcat/Km [5]: 90000 ± 800 M⁻¹ s⁻¹

B3: PsChO (Pimelobacter simplex) (protein)
chain: VLVIGTGYGGAVAALRLAQAGVQVEMIEMGMSWDTPGSDGKIFAKVTSPDKRAYWLRTKTKAPVSNFFGFPIDATIPKYTGILDAEEFAGITVYQGRGVGGGSLVNGGMAVTPKQSRFSSILPSVDAAEMYATYYPRANAGLGVGSIDPAWFETAECYKYARVGRKHAQRSGFAWTFVPDVYDWNYMKAEQAGTVTRSALDGQVMYGNDHGKKSLVQTYLAQALATGRVNVSTLHQVTAVAPRSGGGYTVSIDQLDTSGNVVGTKSVTAGKVFFAAGSVGTSKLLTKLKATGSLPALNNEIGKGWGDNGNVMCGRANHMWDPTGSLQSTIPCSGIDNWDAGGAFAEVAPLPTGIETYASLYLSITNTTRRAEFSWNAAANKVDLSWQTAWKQDSINMAKTIFDKINSKEGTIYRTDLFGAYKVWQDGLTYHPLGGAVLNKATDNYGRLHGYNGLYVIDGALIPGNTTVNPFVTITALAERNIDNILANDI
notes: as for B1
- Km [1]: 294.55 ± 2.97 µM
- kcat [1]: 11.8 ± 0.34 s⁻¹
- kcat/Km [1]: 40000 ± 500 M⁻¹ s⁻¹
- Km [2]: 204.85 ± 3.14 µM
- kcat [2]: 12.3 ± 0.32 s⁻¹
- kcat/Km [2]: 60000 ± 300 M⁻¹ s⁻¹
- Km [3]: 341.21 ± 3.79 µM
- kcat [3]: 6.82 ± 0.14 s⁻¹
- kcat/Km [3]: 20000 ± 400 M⁻¹ s⁻¹
- Km [4]: 789.61 ± 4.71 µM
- kcat [4]: 1.58 ± 0.07 s⁻¹
- kcat/Km [4]: 2000 ± 100 M⁻¹ s⁻¹
- Km [5]: 328.61 ± 3.60 µM
- kcat [5]: 9.86 ± 0.35 s⁻¹
- kcat/Km [5]: 30000 ± 500 M⁻¹ s⁻¹
